The record followed here is publication doi:10.1101/705459 (bioRxiv, 2019).

B1: Peptide U12 (canstatin-derived 15-mer) (peptide)
peptide: VSIGYLLVKHSQTDQ
B2: Peptide S16 (canstatin-derived 15-mer) (peptide)
peptide: PAIAIAVHSQDVSIP

Assay [1] concerns the target T1, CMG2-488 (human CMG2 vWA domain 40-217, [change], [change], AlexaFluor 488) (human, UniProt P58335 40-217).
T1 chain: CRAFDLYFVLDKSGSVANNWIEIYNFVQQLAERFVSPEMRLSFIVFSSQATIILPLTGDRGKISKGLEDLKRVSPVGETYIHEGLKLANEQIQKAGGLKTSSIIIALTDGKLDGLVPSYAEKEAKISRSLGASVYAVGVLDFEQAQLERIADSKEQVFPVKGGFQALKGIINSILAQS
Nature of the assay: FRET or BRET. (In general: BRET reads energy transfer from a luciferase to a nearby fluorophore.)

For assay [2], the target named is T2, CMG2-GST-biotin (human CMG2 vWA domain 40-217, [change], [change], GST fusion, biotin-labelled) (human, UniProt P58335 40-217).
T2 chain: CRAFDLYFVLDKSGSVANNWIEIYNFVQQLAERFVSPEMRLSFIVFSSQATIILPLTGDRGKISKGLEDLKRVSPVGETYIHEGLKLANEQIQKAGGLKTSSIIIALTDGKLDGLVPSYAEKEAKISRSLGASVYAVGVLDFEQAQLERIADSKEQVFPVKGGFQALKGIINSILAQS
Nature of the assay: BLI. On the technique in general: BLI is a label-free optical method that tracks binding on a fibre tip over time.

Assay [3] has as its target B2. In words: peptide or protein array.
Assay [4] concerns the target B1. Nature of the assay: peptide or protein array.

In turn, B1 registered a 50% inhibitory concentration (IC50) in assay [1] of 35000 nM. In assay [2], this molecule displayed a Kd of 80000 nM.

On to B2, for which, in assay [1], the midpoint of inhibition, the IC50, lay at 2700 nM and the Kd was 100 ± 55 nM. In assay [2], the Kd was 400 nM, the koff was roughly 0.0001 s⁻¹ and the kon is roughly 200 M⁻¹ s⁻¹.

B3: CMG2-biotin (human CMG2 vWA domain 40-217, [change], [change], biotin-labelled) (domain or fragment)
chain: CRAFDLYFVLDKSGSVANNWIEIYNFVQQLAERFVSPEMRLSFIVFSSQATIILPLTGDRGKISKGLEDLKRVSPVGETYIHEGLKLANEQIQKAGGLKTSSIIIALTDGKLDGLVPSYAEKEAKISRSLGASVYAVGVLDFEQAQLERIADSKEQVFPVKGGFQALKGIINSILAQS
For B3, the binding result in assay [3] and in assay [4] was “binds” in each case.

For orientation: IC50 means the concentration that inhibits the measured activity by half. A higher IC50 goes with lower potency. As a reminder, the Kd is the concentration at which binding is half-saturated. A low value points to a tighter complex. As a reminder, the koff is the rate constant with which the complex falls apart. By kon is commonly meant a measure of how fast the partners come together. A high value points to faster complex formation.
